The data set deals with recombinant histone H3, wild type.

B1: recombinant DIM1 (enzyme, UniProt P83877 1-142, looked up, species assumed)
Thioredoxin-like protein 4A: MSYMLPHLHNGWQVDQAILSEEDRVVVIRFGHDWDPTCMKMDEVLYSIAEKVKNFAVIYLVDITEVPDFNKMYELYDPCTVMFFFRNKHIMIDLGTGNNNKINWAMEDKQEMVDIIETVYRGARKGRGLVVSPKDYSTKYRY
modifications: His tag
Regarding B1, the “H3NT protease activity (in vitro H3NT cleavage assay, Western blot with the H3CT antibody)” value is reported as “only rMMP-9 possessed H3NT protease activity”.

B2: recombinant USP39 (enzyme, UniProt Q3TIX9 1-564, looked up, species assumed)
Ubiquitin carboxyl-terminal hydrolase 39: MSSRSKRQSHGSTRGKRESESRGSSGRIKKERDREKEPEAASSRGSPVRVKREAEPAAREVPAPALPVVRVKREREADEDSEPEREVRAKNGRVDSEDRRSRHCPYLDTINRSVLDFDFEKLCSISLSHINAYACLVCGKYFQGRGLKSHAYIHSVQFSHHVFLNLHTLKFYCLPDNYEIIDSSLEDITYVLKPTFTKQQIANLDKQAKLSRAYDGTTYLPGIVGLNNIKANDYANAVLQALSNVPPLRNYFLEEDNYKNIKRPPGDIMFLLVQRFGELMRKLWNPRNFKAHVSPHEMLQAVVLCSKKTFQITKQGDGVDFLSWFLNALHSALGGTKKKKKTIVNDVFQGSMRIFTKKLPHPDLPAEEKEQLLHNDEYQETMVESTFMYLTLDLPTAPLYKDEKEQLIIPQVPLFNILAKFNGITEKEYKTYKENFLKRFQLTKLPPYLIFCIKRFTKNNFFVEKNPTIVNFPITNVDLREYLSEEVQAVHKNTTYDLIANIVHDGKPSEGSYRIHVLHHGTGKWYELQDLQVTDILPQMITLSEAYIQIWKRRDNDETNQQGA
modifications: His tag
For the protein B2, the “H3NT protease activity (in vitro H3NT cleavage assay, Western blot with the H3CT antibody)” value is given as “only rMMP-9 possessed H3NT protease activity”.

The record behind these values is US20170269069.
